Data from the supplement of paper PMC10724198.
± gives the standard deviation of the averaged measurements.

Tests used:
Saccharomyces cerevisiae [1] = test: protein stability index of tFT-peptide fusion (C-terminal peptide) (PSI (0-1 scale)); higher = more stable (slower turnover)
Protocol: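 MPS profiling in S. cerevisiae of the tFT-X12 degron library: putative degron peptides plus stable controls, 12 aa, fused to the C-terminus of a sfGFP-mCherry timer. Cells are FACS-sorted into 8 mCherry/sfGFP bins and deep-sequenced. PSI runs from 0 (unstable) to 1 (stable). Backgrounds are wild type, das1Δ and doa10Δ at 30 °C, and wild type, das1Δ, cdc34-1 and cdc53-1 at 37 °C; 2-3 technical replicates each.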

Saccharomyces cerevisiae [2] = test: as above; conditions: genetic background: wild type; temperature: 30 C
[3] = genetic background: cdc34-1, temperature: 37 C
[4] = genetic background: cdc53-1, temperature: 37 C
[5] = genetic background: das1 deletion, temperature: 30 C
[6] = genetic background: das1 deletion, temperature: 37 C
[7] = genetic background: doa10 deletion, temperature: 30 C
[8] = genetic background: wild type, temperature: 30 C
[9] = genetic background: wild type, temperature: 37 C
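Also: PSI is a weighted mean of sequencing reads over stability bins, variants kept only with over 10 reads, mCherry proximal and sfGFP distal, peptide attached via GGGS linker.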

Sequence	protein stability index (Saccharomyces cerevisiae [1]; [3])	protein stability index (Saccharomyces cerevisiae [1]; [4])	protein stability index (Saccharomyces cerevisiae [1]; [5])	protein stability index (Saccharomyces cerevisiae [1]; [6])	protein stability index (Saccharomyces cerevisiae [1]; [7])	protein stability index (Saccharomyces cerevisiae [1]; [8])	protein stability index (Saccharomyces cerevisiae [1]; [9])	protein stability index (Saccharomyces cerevisiae [2])
LYVQSVCFSVPR	0.463 ± 0.024	0.537 ± 0.017	0.445 ± 0.021	0.5091 ± 0.002	0.497 ± 0.052	0.431 ± 0.012	0.486 ± 0.0089	0.422 ± 0.012
MALAVRVVLCGA	0.0507 ± 0.0085	0.0673 ± 0.038	0.165 ± 0.026	0.192 ± 0.0025	0.116 ± 0.029	0.153 ± 0.0088	0.168 ± 0.0051	0.236 ± 0.034
MALAVRVVRCGA	0.406 ± 0.0042	0.422 ± 0.018	0.302 ± 0.025	0.4769 ± 0.0017	0.227 ± 0.043	0.233 ± 0.038	0.379 ± 0.033	0.353 ± 0.024
MGVTVRVEGIRA	0.52 ± 0.036	0.517 ± 0.013	0.368 ± 0.03	0.55332 ± 0.0004	0.3374 ± 0.00071	0.383 ± 0.013	0.537 ± 0.015	0.369 ± 0.084
MLIAISASAARF	0.452 ± 0.037	0.5819 ± 0.0017	0.417 ± 0.027	0.501 ± 0.016	0.45 ± 0.02	0.44 ± 0.034	0.498 ± 0.0095	0.4184 ± 0.00049
MLLFVSCCVFLF	0.134 ± 0.021	0.185 ± 0.011	0.202 ± 0.038	0.292 ± 0.0093	0.157 ± 0.0093	0.169 ± 0.032	0.219 ± 0.019	0.206 ± 0.063
MMYTLSMLLRLR	0.43 ± 0.014	0.5 ± 0.0093	0.506 ± 0.016	0.528 ± 0.015	0.64799 ± 0.00045	0.52 ± 0.02	0.546 ± 0.0085	0.513 ± 0.047
MPQSLKKMVFLA	0.431 ± 0.057	0.628 ± 0.022	0.61 ± 0.032	0.6621 ± 0.005	0.0709 ± 0.025	0.0847 ± 0.0032	0.0875 ± 0.024	0.1516 ± 0.0014
MRLQLTFSILLF	0.353 ± 0.036	0.43 ± 0.034	0.378 ± 0.021	0.393 ± 0.0059	0.4027 ± 0.0029	0.37 ± 0.021	0.3598 ± 0.0024	0.389 ± 0.019
MSRALSVLVVVA	0.176 ± 0.029	0.211 ± 0.011	0.213 ± 0.036	0.323 ± 0.0062	0.172 ± 0.0091	0.22 ± 0.019	0.287 ± 0.029	0.312 ± 0.012
MTLYSFSSALLA	0.413 ± 0.045	0.464 ± 0.013	0.316 ± 0.014	0.461 ± 0.002	0.27 ± 0.038	0.276 ± 0.016	0.423 ± 0.0074	0.3535 ± 0.0027
NCVDRFKGQKRM	0.655 ± 0.055	0.723 ± 0.029	0.64 ± 0.027	0.711 ± 0.0013	0.422 ± 0.021	0.491 ± 0.023	0.6341 ± 0.0052	0.505 ± 0.031
NFFIQFHNLLFP	0.754 ± 0.017	0.765 ± 0.037	0.664 ± 0.0089	0.769 ± 0.022	0.653 ± 0.017	0.6712 ± 0.0036	0.774 ± 0.027	0.718 ± 0.0086
NGLVCVFILSWY	0.202 ± 0.022	0.261 ± 0.1	0.234 ± 0.038	0.437 ± 0.011	0.21 ± 0.012	0.238 ± 0.033	0.375 ± 0.0047	0.375 ± 0.031
NLFVFLSYLFNV	0.603 ± 0.051	0.66 ± 0.0075	0.563 ± 0.013	0.7168 ± 0.0052	0.336 ± 0.035	0.34 ± 0.014	0.484 ± 0.013	0.422 ± 0.022
NLVCLDPFLVFV	0.582 ± 0.027	0.612 ± 0.011	0.478 ± 0.018	0.613 ± 0.0077	0.475 ± 0.026	0.472 ± 0.025	0.5835 ± 0.003	0.581 ± 0.22
NMVSMVVVIFGV	0.248 ± 0.014	0.37 ± 0.1	0.23 ± 0.039	0.437 ± 0.024	0.196 ± 0.021	0.24 ± 0.02	0.386 ± 0.016	0.275 ± 0.015
NNQIQKKMYQTN	0.585 ± 0.022	0.778 ± 0.018	0.667 ± 0.019	0.737 ± 0.012	0.179 ± 0.025	0.198 ± 0.05	0.473 ± 0.051	0.35 ± 0.022
NWAIEIRSVKIV	0.642 ± 0.066	0.701 ± 0.022	0.619 ± 0.04	0.7084 ± 0.007	0.148 ± 0.0038	0.183 ± 0.021	0.303 ± 0.015	0.261 ± 0.025
NYCVFLSYLLFC	0.362 ± 0.044	0.424 ± 0.025	0.318 ± 0.027	0.502 ± 0.0072	0.205 ± 0.012	0.215 ± 0.033	0.3961 ± 0.0034	0.301 ± 0.0096

Sequence	protein stability index (Saccharomyces cerevisiae [1]; [3])	protein stability index (Saccharomyces cerevisiae [1]; [4])	protein stability index (Saccharomyces cerevisiae [1]; [5])	protein stability index (Saccharomyces cerevisiae [1]; [6])	protein stability index (Saccharomyces cerevisiae [1]; [7])	protein stability index (Saccharomyces cerevisiae [1]; [8])	protein stability index (Saccharomyces cerevisiae [1]; [9])	protein stability index (Saccharomyces cerevisiae [2])
NYFRPWLIFHKC	0.684 ± 0.021	0.749 ± 0.012	0.632 ± 0.05	0.742 ± 0.014	0.2644 ± 0.00051	0.309 ± 0.023	0.547 ± 0.0037	0.38 ± 0.059
PALPQPMNPAPP	0.656 ± 0.043	0.722 ± 0.0094	0.657 ± 0.014	0.727 ± 0.015	0.667 ± 0.022	0.66 ± 0.016	0.6734 ± 0.0059	0.725 ± 0.032
PALVVALLASVL	0.584 ± 0.018	0.646 ± 0.039	0.505 ± 0.022	0.60007 ± 0.00036	0.347 ± 0.015	0.386 ± 0.029	0.504 ± 0.0057	0.485 ± 0.011
PCLPLTPMWTLF	0.713 ± 0.034	0.789 ± 0.021	0.678 ± 0.0076	0.7793 ± 0.0028	0.3716 ± 0.0014	0.42 ± 0.022	0.611 ± 0.018	0.493 ± 0.0072
PFFVLFSLAFLF	0.375 ± 0.018	0.439 ± 0.033	0.302 ± 0.04	0.4886 ± 0.00064	0.2698 ± 0.0019	0.278 ± 0.017	0.422 ± 0.015	0.279 ± 0.07
PLATSLIGLFVV	0.663 ± 0.098	0.716 ± 0.013	0.522 ± 0.028	0.661 ± 0.021	0.273 ± 0.018	0.298 ± 0.032	0.4673 ± 0.0014	0.433 ± 0.039
PLLLFFFPRLLF	0.579 ± 0.046	0.62 ± 0.025	0.535 ± 0.027	0.6481 ± 0.0026	0.39 ± 0.0054	0.382 ± 0.019	0.559 ± 0.025	0.475 ± 0.024
PLLPTPLTAPPP	0.6705 ± 0.0022	0.73469 ± 0.00013	0.642 ± 0.031	0.7031 ± 0.006	0.659 ± 0.018	0.671 ± 0.023	0.6941 ± 0.0038	0.385 ± 0.0092
PLLSATLTRRLA	0.622 ± 0.041	0.665 ± 0.0088	0.684 ± 0.0075	0.692 ± 0.0072	0.162 ± 0.015	0.19 ± 0.03	0.386 ± 0.0044	0.475 ± 0.024
PLTSPLLFPVFA	0.272 ± 0.044	0.338 ± 0.029	0.269 ± 0.024	0.376 ± 0.0081	0.219 ± 0.011	0.267 ± 0.017	0.381 ± 0.033	0.376 ± 0.015
PPPLPFPTPPPS	0.689 ± 0.0093	0.764 ± 0.041	0.644 ± 0.044	0.702 ± 0.0074	0.634 ± 0.025	0.646 ± 0.032	0.6663 ± 0.0036	0.433 ± 0.038
PPSLPPLISFSP	0.7 ± 0.039	0.7808 ± 0.0052	0.656 ± 0.015	0.7661 ± 0.0014	0.669 ± 0.011	0.6624 ± 0.0039	0.7407 ± 0.0059	0.729 ± 0.03
PPSRSPLPPLLH	0.657 ± 0.04	0.729 ± 0.024	0.687 ± 0.041	0.707 ± 0.017	0.6917 ± 0.0047	0.686 ± 0.027	0.694 ± 0.031	0.723 ± 0.027
PPTPYPRFIFSF	0.688 ± 0.048	0.7541 ± 0.0012	0.647 ± 0.023	0.7672 ± 0.0047	0.331 ± 0.02	0.372 ± 0.028	0.601 ± 0.0037	0.459 ± 0.027
PPVPRLLPVLAP	0.525 ± 0.038	0.503 ± 0.015	0.379 ± 0.025	0.546 ± 0.02	0.348 ± 0.0045	0.385 ± 0.025	0.506 ± 0.0077	0.474 ± 0.0057
PRIVLFLRLHSN	0.555 ± 0.082	0.651 ± 0.042	0.512 ± 0.014	0.6891 ± 0.002	0.107 ± 0.029	0.118 ± 0.02	0.2184 ± 0.0019	0.21 ± 0.0069
PRPETCHAVAVR	0.568 ± 0.012	0.588 ± 0.037	0.377 ± 0.034	0.575 ± 0.015	0.363 ± 0.0093	0.4 ± 0.029	0.58 ± 0.011	0.4806 ± 0.0021
PRPLLSIYLRHA	0.597 ± 0.036	0.666 ± 0.014	0.599 ± 0.023	0.69 ± 0.019	0.29 ± 0.013	0.315 ± 0.017	0.553 ± 0.022	0.405 ± 0.018
PRQPSKSNASNR	0.692 ± 0.044	0.7277 ± 0.00076	0.623 ± 0.023	0.722 ± 0.015	0.64909 ± 0.00052	0.635 ± 0.0095	0.701 ± 0.022	0.582 ± 0.13
